# B1: Interferon alpha/beta receptor 1 (Homo sapiens), P17181-1 (parent)
# chain: MMVVLLGATTLVLVAVAPWVLSAAAGGKNLKSPQKVEVDIIDDNFILRWNRSDESVGNVTFSFDYQKTGMDNWIKLSGCQNITSTKCNFSSLKLNVYEEIKLRIRAEKENTSSWYEVDSFTPFRKAQIGPPEVHLEAEDKAIVIHISPGTKDSVMWALDGLSFTYSLVIWKNSSGVEERIENIYSRHKIYKLSPETTYCLKVKAALLTSWKIGVYSPVHCIKTTVENELPPPENIEVSVQNQNYVLKWDYTYANMTFQVQWLHAFLKRNPGNHLYKWKQIPDCENVKTTQCVFPQNVFQKGIYLLRVQASDGNNTSFWSEEIKFDTEIQAFLLPPVFNIRSLSDSFHIYIGAPKQSGNTPVIQDYPLIYEIIFWENTSNAERKIIEKKTDVTVPNLKPLTVYCVKARAHTMDEKLNKSSVFSDAVCEKTKPGNTSKIWLIVGICIALFALPFVIYAAKVFLRCINYVFFPSLKPSSSIDEYFSEQPLKNLLLSTSEEQIEKCFIIENISTIATVEETNQTDEDHKKYSSQTSQDSGNYSNEDESESKTSEELQQDFV
# Variants of: B1
# Conditions: with tyk2_human TYK2, P29597
# tyk2_human TYK2, P29597, sequence (P29597 whole entry): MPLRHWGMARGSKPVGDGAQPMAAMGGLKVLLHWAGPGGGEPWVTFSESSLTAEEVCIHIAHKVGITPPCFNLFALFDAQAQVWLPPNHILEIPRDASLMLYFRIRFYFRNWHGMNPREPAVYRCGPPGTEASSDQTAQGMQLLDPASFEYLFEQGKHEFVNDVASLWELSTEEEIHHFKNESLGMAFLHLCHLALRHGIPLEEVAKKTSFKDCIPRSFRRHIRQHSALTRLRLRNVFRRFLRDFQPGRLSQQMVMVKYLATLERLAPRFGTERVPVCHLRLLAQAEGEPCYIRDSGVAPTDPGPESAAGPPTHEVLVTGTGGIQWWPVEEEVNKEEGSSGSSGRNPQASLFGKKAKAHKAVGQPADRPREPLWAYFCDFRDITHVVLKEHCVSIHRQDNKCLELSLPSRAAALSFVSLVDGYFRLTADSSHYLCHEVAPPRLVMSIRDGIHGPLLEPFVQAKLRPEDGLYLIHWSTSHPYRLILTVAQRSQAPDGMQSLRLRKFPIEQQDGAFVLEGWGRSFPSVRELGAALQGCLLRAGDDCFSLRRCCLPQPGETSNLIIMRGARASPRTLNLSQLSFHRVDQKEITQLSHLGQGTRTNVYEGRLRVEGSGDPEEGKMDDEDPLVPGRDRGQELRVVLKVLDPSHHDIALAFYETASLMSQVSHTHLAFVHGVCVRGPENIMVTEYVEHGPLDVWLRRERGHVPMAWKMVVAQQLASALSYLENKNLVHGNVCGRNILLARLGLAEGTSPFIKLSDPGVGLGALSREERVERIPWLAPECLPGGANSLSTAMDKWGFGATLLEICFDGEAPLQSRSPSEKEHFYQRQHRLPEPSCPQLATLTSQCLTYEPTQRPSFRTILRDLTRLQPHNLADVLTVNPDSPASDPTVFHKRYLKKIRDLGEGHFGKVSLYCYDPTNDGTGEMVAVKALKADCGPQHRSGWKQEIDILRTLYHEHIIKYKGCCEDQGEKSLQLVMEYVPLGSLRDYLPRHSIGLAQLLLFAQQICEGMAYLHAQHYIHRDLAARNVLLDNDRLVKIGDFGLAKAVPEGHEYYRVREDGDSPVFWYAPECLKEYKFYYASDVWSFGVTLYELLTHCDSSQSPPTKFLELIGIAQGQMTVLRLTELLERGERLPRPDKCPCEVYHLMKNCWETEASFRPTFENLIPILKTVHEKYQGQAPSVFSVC
row,effect of a mutation on the interaction,Variant
1,disrupting interaction strength,MMVVLLGATTLVLVAVAPWVLSAAAGGKNLKSPQKVEVDIIDDNFILRWNRSDESVGNVTFSFDYQKTGMDNWIKLSGCQNITSTKCNFSSLKLNVYEEIKLRIRAEKENTSSWYEVDSFTPFRKAQIGPPEVHLEAEDKAIVIHISPGTKDSVMWALDGLSFTYSLVIWKNSSGVEERIENIYSRHKIYKLSPETTYCLKVKAALLTSWKIGVYSPVHCIKTTVENELPPPENIEVSVQNQNYVLKWDYTYANMTFQVQWLHAFLKRNPGNHLYKWKQIPDCENVKTTQCVFPQNVFQKGIYLLRVQASDGNNTSFWSEEIKFDTEIQAFLLPPVFNIRSLSDSFHIYIGAPKQSGNTPVIQDYPLIYEIIFWENTSNAERKIIEKKTDVTVPNLKPLTVYCVKARAHTMDEKLNKSSVFSDAVCEKTKPGNTSKIWLIVGICIALFALPFVIYAAKVFLRCINYVFFPSLKPSSSIDEYFSEQPLKNLLLSTSEAQIEKCFIIENISTIATVEETNQTDEDHKKYSSQTSQDSGNYSNEDESESKTSEELQQDFV [E497A]
